The test system of this data set is Escherichia coli TOP10. In words: shrunken log2 fold change of peptide-encoding DNA abundance (4.5 h post-induction vs induction); higher = less antimicrobial activity (less host growth inhibition). The note with it: time post-induction: 4.5 h; library: site-saturation at positions 5, 18, 19, 20.
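Note: peptides expressed intracellularly from a pBAD plasmid library in pooled LB shake-flask culture, induced with 0.3% L-arabinose, DNA abundance read by NGS, three biological replicates, DESeq2 with apeglm shrinkage.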

As for RRIRGRPPRLPRPRPRPDFNPRP, the “shrunken log2 fold change” value was determined as 0.325. In the case of RRIRYRPPRLPRPRPRPMHTPRP, the “shrunken log2 fold change” value was -0.254. On to RRIRCRPPRLPRPRPRPNIMPRP, for which the “shrunken log2 fold change” value was -0.896.

Turning to RRIRTRPPRLPRPRPRPTAEPRP, the “shrunken log2 fold change” value amounted to 0.458. In the case of RRIRWRPPRLPRPRPRPVCFPRP, the “shrunken log2 fold change” value was 0.376. RRIRTRPPRLPRPRPRPGWKPRP: the “shrunken log2 fold change” value was 0.262. RRIRTRPPRLPRPRPRPNLDPRP: the “shrunken log2 fold change” value is 0.0338. In the case of RRIRCRPPRLPRPRPRPCGIPRP, the “shrunken log2 fold change” value was 0.153. As to RRIRTRPPRLPRPRPRPTHKPRP, the “shrunken log2 fold change” value is -0.0156. Consider RRIRLRPPRLPRPRPRPGKRPRP, for which the “shrunken log2 fold change” value came to 0.364. On to RRIRQRPPRLPRPRPRPSACPRP, for which the “shrunken log2 fold change” value stood at 0.42. In the case of RRIRTRPPRLPRPRPRPMFHPRP, the “shrunken log2 fold change” value was -0.52. Take RRIRRRPPRLPRPRPRPWHKPRP: the “shrunken log2 fold change” value was -0.384. In the case of RRIRCRPPRLPRPRPRPFRQPRP, the “shrunken log2 fold change” value was -0.0498. As to RRIRWRPPRLPRPRPRPNFWPRP, the “shrunken log2 fold change” value came to 0.224. Regarding RRIRMRPPRLPRPRPRPHYFPRP, the “shrunken log2 fold change” value was -0.0364. RRIRCRPPRLPRPRPRPCWCPRP: the “shrunken log2 fold change” value was -0.203.

RRIRVRPPRLPRPRPRPESLPRP: the “shrunken log2 fold change” value was -0.175.

As for RRIRERPPRLPRPRPRPQYSPRP, the “shrunken log2 fold change” value was -0.0489. Regarding RRIRWRPPRLPRPRPRPVYPPRP, the “shrunken log2 fold change” value is -0.104.

Consider RRIRMRPPRLPRPRPRPDAWPRP, for which the “shrunken log2 fold change” value came to 2.59. In the case of RRIRVRPPRLPRPRPRPPTEPRP, the “shrunken log2 fold change” value was 0.273. As for RRIRIRPPRLPRPRPRPSSYPRP, the “shrunken log2 fold change” value is -0.207. In the case of RRIRLRPPRLPRPRPRPYEEPRP it was -0.274. For the sequence RRIRRRPPRLPRPRPRPQNAPRP, the “shrunken log2 fold change” value turned out to be 0.0513. RRIRCRPPRLPRPRPRPHPFPRP: the “shrunken log2 fold change” value is -0.0728.

As to RRIRCRPPRLPRPRPRPFGSPRP, the “shrunken log2 fold change” value is -0.078. On to RRIRGRPPRLPRPRPRPHCKPRP, for which the “shrunken log2 fold change” value came to 0.0392. As for RRIRDRPPRLPRPRPRPTCSPRP, the “shrunken log2 fold change” value is 0.112.

Turning to RRIRTRPPRLPRPRPRPGMLPRP, the “shrunken log2 fold change” value was -0.141.

In the case of RRIRCRPPRLPRPRPRPSTSPRP, the “shrunken log2 fold change” value is -0.282.

With RRIRGRPPRLPRPRPRPDYCPRP, the “shrunken log2 fold change” value came to 0.0958. Consider RRIRYRPPRLPRPRPRPACWPRP, for which the “shrunken log2 fold change” value came to 0.47. In the case of RRIRTRPPRLPRPRPRPHQTPRP it was -0.0425; in that of RRIRPRPPRLPRPRPRPWFEPRP, -0.261. As for RRIRFRPPRLPRPRPRPKGFPRP, the “shrunken log2 fold change” value was 0.21. Regarding RRIRFRPPRLPRPRPRPFLGPRP, the “shrunken log2 fold change” value is 0.0749. Turning to RRIRNRPPRLPRPRPRPILRPRP, the “shrunken log2 fold change” value is -0.455.

For RRIRHRPPRLPRPRPRPDSAPRP, the “shrunken log2 fold change” value was -0.216.

As for RRIRFRPPRLPRPRPRPVYYPRP, the “shrunken log2 fold change” value was -1.27.

As for RRIRRRPPRLPRPRPRPAQIPRP, the “shrunken log2 fold change” value turned out to be 0.494. Regarding RRIRKRPPRLPRPRPRPERQPRP, the “shrunken log2 fold change” value was determined as 0.0351. Take RRIRGRPPRLPRPRPRPNDEPRP: the “shrunken log2 fold change” value is 0.482. Turning to RRIRHRPPRLPRPRPRPHAIPRP, the “shrunken log2 fold change” value is -0.251. With RRIRDRPPRLPRPRPRPQTVPRP, the “shrunken log2 fold change” value was determined as 0.0628. In the case of RRIRGRPPRLPRPRPRPGQIPRP, the “shrunken log2 fold change” value was 0.352.

In the case of RRIRFRPPRLPRPRPRPVIYPRP, the “shrunken log2 fold change” value is -0.588. Turning to RRIRKRPPRLPRPRPRPTQQPRP, the “shrunken log2 fold change” value came out at 1.35. For RRIRVRPPRLPRPRPRPWYEPRP, the “shrunken log2 fold change” value was -0.337. For the sequence RRIRFRPPRLPRPRPRPAKHPRP, the “shrunken log2 fold change” value is -0.149. For the sequence RRIRLRPPRLPRPRPRPNISPRP, the “shrunken log2 fold change” value was -0.373. With RRIRLRPPRLPRPRPRPYSCPRP, the “shrunken log2 fold change” value was -0.458. With RRIRGRPPRLPRPRPRPIEEPRP, the “shrunken log2 fold change” value stood at 0.235.

With RRIRWRPPRLPRPRPRPAFHPRP, the “shrunken log2 fold change” value was determined as 0.153.

RRIRPRPPRLPRPRPRPVWWPRP: the “shrunken log2 fold change” value turned out to be 0.232. The figure for RRIRMRPPRLPRPRPRPAAHPRP is 0.531. On to RRIRYRPPRLPRPRPRPSYMPRP, for which the “shrunken log2 fold change” value was -1.41. For the sequence RRIRYRPPRLPRPRPRPGEVPRP, the “shrunken log2 fold change” value was -0.0129. Turning to RRIRNRPPRLPRPRPRPRQVPRP, the “shrunken log2 fold change” value was -0.306.

As for RRIRRRPPRLPRPRPRPYLKPRP, the “shrunken log2 fold change” value was -0.936. RRIRSRPPRLPRPRPRPCVYPRP: the “shrunken log2 fold change” value was -0.0613. Consider RRIRWRPPRLPRPRPRPIRCPRP, for which the “shrunken log2 fold change” value stood at 0.0257. Regarding RRIRLRPPRLPRPRPRPFRLPRP, the “shrunken log2 fold change” value was -0.0872. With RRIRTRPPRLPRPRPRPDIVPRP, the “shrunken log2 fold change” value was -0.0539. In the case of RRIRCRPPRLPRPRPRPAYAPRP, the “shrunken log2 fold change” value came out at 0.00565. For RRIRVRPPRLPRPRPRPDWYPRP, the “shrunken log2 fold change” value was -0.0357. Turning to RRIRRRPPRLPRPRPRPYEDPRP, the “shrunken log2 fold change” value was -0.08.

RRIRNRPPRLPRPRPRPFLKPRP: the “shrunken log2 fold change” value was -0.294. For the sequence RRIRERPPRLPRPRPRPMRLPRP, the “shrunken log2 fold change” value amounted to 0.472.

As for RRIRYRPPRLPRPRPRPCHFPRP, the “shrunken log2 fold change” value is -0.0527. With RRIRSRPPRLPRPRPRPRFSPRP, the “shrunken log2 fold change” value is 0.44.

Turning to RRIRGRPPRLPRPRPRPPGWPRP, the “shrunken log2 fold change” value was determined as 1.04. RRIRRRPPRLPRPRPRPFVVPRP: the “shrunken log2 fold change” value worked out at 0.0981. Take RRIRQRPPRLPRPRPRPENLPRP: the “shrunken log2 fold change” value is -0.0164.

Regarding RRIRSRPPRLPRPRPRPDMRPRP, the “shrunken log2 fold change” value stood at 0.187. As to RRIRFRPPRLPRPRPRPCMGPRP, the “shrunken log2 fold change” value is -0.49.

Turning to RRIRPRPPRLPRPRPRPAPPPRP, the “shrunken log2 fold change” value turned out to be 0.726. In the case of RRIRYRPPRLPRPRPRPLNQPRP, the “shrunken log2 fold change” value was -0.343. The figure for RRIRERPPRLPRPRPRPQECPRP is -0.399; for RRIRQRPPRLPRPRPRPAHPPRP it is 0.181; for RRIRGRPPRLPRPRPRPVGVPRP it is 1.08.

On to RRIRTRPPRLPRPRPRPKLVPRP, for which the “shrunken log2 fold change” value was found to be 0.016.

Take RRIRSRPPRLPRPRPRPCVLPRP: the “shrunken log2 fold change” value is -0.247. Take RRIRARPPRLPRPRPRPPKRPRP: the “shrunken log2 fold change” value was determined as 0.485. Turning to RRIRHRPPRLPRPRPRPEYIPRP, the “shrunken log2 fold change” value is 0.00452. As to RRIRRRPPRLPRPRPRPWANPRP, the “shrunken log2 fold change” value is 0.0142.

In the case of RRIRHRPPRLPRPRPRPMNLPRP, the “shrunken log2 fold change” value is -0.0351. For RRIRIRPPRLPRPRPRPRNHPRP, the “shrunken log2 fold change” value is -0.354.

In the case of RRIRNRPPRLPRPRPRPLVLPRP, the “shrunken log2 fold change” value is -0.171. Turning to RRIRNRPPRLPRPRPRPNTRPRP, the “shrunken log2 fold change” value was -0.115.

For RRIRGRPPRLPRPRPRPTMAPRP, the “shrunken log2 fold change” value is 1.24.

RRIRFRPPRLPRPRPRPQRRPRP: the “shrunken log2 fold change” value is -0.177. RRIRIRPPRLPRPRPRPCVFPRP: the “shrunken log2 fold change” value was -1.22.

RRIRNRPPRLPRPRPRPPKAPRP: the “shrunken log2 fold change” value was found to be 0.00248. The figure for RRIRCRPPRLPRPRPRPYHEPRP is -0.329; for RRIRDRPPRLPRPRPRPKGHPRP it is 0.0517; for RRIRTRPPRLPRPRPRPWVYPRP it is -0.294. Take RRIRPRPPRLPRPRPRPVCYPRP: the “shrunken log2 fold change” value is -0.309.

Consider RRIRHRPPRLPRPRPRPYTCPRP, for which the “shrunken log2 fold change” value was -0.0278. For the sequence RRIRERPPRLPRPRPRPASWPRP, the “shrunken log2 fold change” value came to 0.0747. RRIRRRPPRLPRPRPRPVRLPRP: the “shrunken log2 fold change” value worked out at 1.08.

Regarding RRIRERPPRLPRPRPRPHETPRP, the “shrunken log2 fold change” value is -0.0135. As for RRIRHRPPRLPRPRPRPMHKPRP, the “shrunken log2 fold change” value is 0.227.

Take RRIRLRPPRLPRPRPRPWMSPRP: the “shrunken log2 fold change” value was -0.55. Regarding RRIRVRPPRLPRPRPRPNLDPRP, the “shrunken log2 fold change” value was -0.0165. For the sequence RRIRRRPPRLPRPRPRPWDGPRP, the “shrunken log2 fold change” value came out at 0.399.

RRIRTRPPRLPRPRPRPKPLPRP: the “shrunken log2 fold change” value is -0.0401. Regarding RRIRTRPPRLPRPRPRPPRGPRP, the “shrunken log2 fold change” value was 0.607.

As to RRIRWRPPRLPRPRPRPLCKPRP, the “shrunken log2 fold change” value was found to be 0.116. With RRIRVRPPRLPRPRPRPYACPRP, the “shrunken log2 fold change” value stood at 0.0114. RRIRFRPPRLPRPRPRPVLKPRP: the “shrunken log2 fold change” value is -0.24. In the case of RRIRTRPPRLPRPRPRPIRNPRP it was -0.324. For RRIRQRPPRLPRPRPRPALSPRP, the “shrunken log2 fold change” value is 0.217. On to RRIRKRPPRLPRPRPRPAKVPRP, for which the “shrunken log2 fold change” value amounted to 0.0797.

Consider RRIRYRPPRLPRPRPRPKFWPRP, for which the “shrunken log2 fold change” value was determined as 0.449. In the case of RRIRFRPPRLPRPRPRPESDPRP it was 0.17; in that of RRIRRRPPRLPRPRPRPVPGPRP, 0.402. With RRIRSRPPRLPRPRPRPLCSPRP, the “shrunken log2 fold change” value amounted to 0.0443. Turning to RRIRYRPPRLPRPRPRPFPMPRP, the “shrunken log2 fold change” value was -0.834. As to RRIRGRPPRLPRPRPRPDQMPRP, the “shrunken log2 fold change” value was found to be 0.633. For the sequence RRIRIRPPRLPRPRPRPDCFPRP, the “shrunken log2 fold change” value was -0.211. Consider RRIRCRPPRLPRPRPRPTRTPRP, for which the “shrunken log2 fold change” value amounted to 0.406. As to RRIRFRPPRLPRPRPRPLDYPRP, the “shrunken log2 fold change” value was -0.0121. Take RRIRSRPPRLPRPRPRPWFAPRP: the “shrunken log2 fold change” value was -0.00302. As to RRIRCRPPRLPRPRPRPYHWPRP, the “shrunken log2 fold change” value was -1.09.
